Experimental data reported in the supplement of paper PMC12042874.
± gives the uncertainty stated by the source.

Assay: amyloid nucleation score (Sup35N fusion, yeast selection) (log enrichment); library NNK1; higher = more nucleation; inactive = no reads after selection
Procedure, shortened: (§1)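 The nucleation score is the log enrichment of output over input reads, calculated with DiMSum and centred on the mode score of non-aggregating sequences. Sequences with under 100 input reads were excluded. Reads came from Illumina sequencing of plasmid inserts from psi-negative yeast expressing Sup35N fused to peptides of 20 random codons, induced 24 hours with 100 μM copper sulfate and grown 7 days at 30°C without adenine and uracil.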
With VRNNNFAYVNSVTDGVRYAR the amyloid nucleation score was “inactive”.
For TKCGMGYISGISSPASGQYG, the amyloid nucleation score was 0.767 ± 1.
Work on EGPMLVCVLVVSTTGIGRGC yielded an amyloid nucleation score of 1.58 ± 0.59.
Work on FSYYVKGDGKERVGWMASIM yielded an amyloid nucleation score of -0.94 ± 0.94.
Work on MCFDGICMNWWVR yielded an amyloid nucleation score of 2.96 ± 0.086.
VWLWDLA showed an amyloid nucleation score of 1.25 ± 0.62.
MVRYKRRSLELFMIARYSCC showed an amyloid nucleation score of 0.599 ± 1.2.
RYHSY showed an amyloid nucleation score of -0.008 ± 0.77.
Substance IVDPWY has an amyloid nucleation score of 2.56 ± 0.12.
In the case of KFNDDRNGIATLQRHHIAGF, the amyloid nucleation score is reported as -0.969 ± 0.71.
For GFLCQSRVLAML, the amyloid nucleation score was “inactive”.
HRSSNVSGLVWSFHRMKYVI showed an amyloid nucleation score of 0.599 ± 0.79.
In the case of NPRISCFVLQIRSAALSQSV, the amyloid nucleation score is reported as -0.007 ± 0.92.
In the case of GIIFGMKVGWK, the amyloid nucleation score is reported as 0.385 ± 0.31.
With LHGPN the amyloid nucleation score was 0.705 ± 0.71.
For SGNGRRWSVLTDLAMLLLWL, the amyloid nucleation score was -0.316 ± 0.41.
With RHISAAEPQSVESMIAKGN the amyloid nucleation score was -0.054 ± 0.98.
RCYIDYSVEFRLHMIKMKTR showed an amyloid nucleation score of -0.227 ± 0.65.
With NTKTNGTSIGNSTVVLHLIA the amyloid nucleation score was 6.409 ± 0.057.
Substance LNHCVNMLRGRCGVPLLSVV has an amyloid nucleation score of 0.551 ± 1.1.
For RWLHVIKL, the amyloid nucleation score was 2.21 ± 0.35.
SGYTGDDFQLKVEG gave an amyloid nucleation score of -0.307 ± 0.39.
Substance QFKKVGPPLVKNLAQVRMRM has an amyloid nucleation score of -0.033 ± 0.47.
Substance ALWNLCCHLGDGTAADSTVY has an amyloid nucleation score of -0.46 ± 1.9.
With GLVSRIAGLIHEIDGRFWMQ the amyloid nucleation score was “inactive”.
With DCFARVLLTMRYLKGVVYTE the amyloid nucleation score was 1.13 ± 0.27.
With SGWRSHKLLVSSSCMNARSY the amyloid nucleation score was -0.837 ± 0.48.
Work on VRLRDVILSKVATMSF yielded an amyloid nucleation score of -0.363 ± 0.27.
Work on GTLRHDVMRQLTFLCYFINL yielded an amyloid nucleation score of 0.047 ± 0.72.
Substance QIHFFAFRFIGMVYFPRIGD has an amyloid nucleation score of 0.318 ± 0.79.
Work on HKNEYSGFKRSKLLYRARMR yielded an amyloid nucleation score of 0.964 ± 0.68.
Substance PTMSLIDGIVGKLMDSRVGT has an amyloid nucleation score of -0.11 ± 0.32.
GMARHEMRGGMHSTLLRLTA gave an amyloid nucleation score of 0.735 ± 0.91.
Work on SALGFFRAYQSIKRTLFRRR yielded an amyloid nucleation score of -0.064 ± 0.56.
With CSNLQLAHKRRISNWSNLWC the amyloid nucleation score was -0.029 ± 0.98.
ILDHT showed an amyloid nucleation score of 0.267 ± 0.33.
QIFLWFGISNKDFLHFVSWS showed an amyloid nucleation score of 0.158 ± 0.57.
AYFRGRVNFSLTFLAYT showed an amyloid nucleation score of -0.098 ± 0.56.
For NLQVVYMSLV, the amyloid nucleation score was 2.99 ± 0.14.
For PTFNSAQTRSISYIKTDYLE, the amyloid nucleation score was “inactive”.
In the case of QSDKCCLMYGECVHVVC, the amyloid nucleation score is reported as 2.83 ± 0.069.
KAAGMGSCSYTMVNYTPDAG showed an amyloid nucleation score of 1.39 ± 0.23.
For LMSEVRPAMLDSSVLRDCYD, the amyloid nucleation score was “inactive”.
In the case of MGSEVSELWGLVEVKVGDKP, the amyloid nucleation score is reported as 0.617 ± 0.52.
CHCNL showed an amyloid nucleation score of 1.81 ± 0.38.
With SCLWGMRLKL the amyloid nucleation score was -0.366 ± 0.8.
In the case of IWTFRYVFRIFTCSDGTMVH, the amyloid nucleation score is reported as -0.108 ± 0.42.
LVFGILHGCFEVVSGMLRVD gave an amyloid nucleation score of -0.801 ± 0.65.
DDMCFLN showed an amyloid nucleation score of 0.797 ± 0.34.
For LFTKNSIGGVFPCPPETARY, the amyloid nucleation score was -1.18 ± 2.4.
Substance ISNLWYNCCGIRPS has an amyloid nucleation score of 5.86 ± 0.047.
Substance MEWLYRNTATFCR has an amyloid nucleation score of -0.657 ± 1.7.
HRVLYIPALDNVVCRDIWRV showed an amyloid nucleation score of 1.29 ± 0.46.

Assay: amyloid nucleation score (Sup35N fusion, yeast selection) (log enrichment); library NNK2; higher = more nucleation; inactive = no reads after selection
Procedure, shortened: as §1
For VYLGSGFAARRSSGEQRRIS, the amyloid nucleation score was 0.536 ± 0.66.
Substance KIEVRLRVTYGYSSLVQAVG has an amyloid nucleation score of -0.326 ± 1.
With DTCWEGCLTKTYFW the amyloid nucleation score was -1.29 ± 0.75.
With TFLWK the amyloid nucleation score was -0.349 ± 0.55.
GWMCMPAQGAKDNHLLGYLM showed an amyloid nucleation score of -0.533 ± 0.55.
Work on IKISNLTTKVMSHFVSGVAK yielded an amyloid nucleation score of -0.982 ± 0.48.
In the case of TKSVVLMNSMSS, the amyloid nucleation score is reported as 0.072 ± 1.1.
Work on ALLALTVLIYNLIDMLQVNR yielded an amyloid nucleation score of 0.728 ± 0.8.
DSFLLTPDLRDMYEL gave an amyloid nucleation score of -0.681 ± 0.26.
Work on GRCTGLLCLALVVIYQ yielded an amyloid nucleation score of 0.358 ± 0.39.
Work on YGLPYEVLFNHSHTSNRAYS yielded an amyloid nucleation score of -0.532 ± 0.43.
For LVFGVLQVCVLCSVTDNLGA, the amyloid nucleation score was 0.159 ± 0.35.
Work on LSLLRFLNCMRYCLCIGLAS yielded an amyloid nucleation score of 4.14 ± 0.093.
In the case of YHRSCFWDYLISDGLKQACH, the amyloid nucleation score is reported as -1.51 ± 0.78.
For VWRNRSGNITSVTFL, the amyloid nucleation score was 5.23 ± 0.069.
For FKCNIYYSFRYGSI, the amyloid nucleation score was 7.18 ± 0.026.
Substance IGSRVVYISRVLLKNWTLVT has an amyloid nucleation score of -0.592 ± 0.76.
